{
  "source": "paper doi:10.1101/609735",
  "about": "(bioRxiv, 2019)",
  "binders": {"B1": {"name": "recombinant mouse PlGF2 (ligand, UniProt P49764 19-158, looked up)", "chain": "VHSQGALSAGNNSTEVEVVPFNEVWGRSYCRPMEKLVYILDEYPDEVSHIFSPSCVLLSRCSGCCGDEGLHCVPIKTANITMQILKIPPNRDPHFYVEMTFSQDVLCECRPILETTKAERRKTKGKRKRSRNSQTEEPHP"}},
  "target": "T1, mouse FLT1-FC chimeric protein with His-tag (mouse, UniProt P35969 23-759)",
  "T1 sequence (looked up)": "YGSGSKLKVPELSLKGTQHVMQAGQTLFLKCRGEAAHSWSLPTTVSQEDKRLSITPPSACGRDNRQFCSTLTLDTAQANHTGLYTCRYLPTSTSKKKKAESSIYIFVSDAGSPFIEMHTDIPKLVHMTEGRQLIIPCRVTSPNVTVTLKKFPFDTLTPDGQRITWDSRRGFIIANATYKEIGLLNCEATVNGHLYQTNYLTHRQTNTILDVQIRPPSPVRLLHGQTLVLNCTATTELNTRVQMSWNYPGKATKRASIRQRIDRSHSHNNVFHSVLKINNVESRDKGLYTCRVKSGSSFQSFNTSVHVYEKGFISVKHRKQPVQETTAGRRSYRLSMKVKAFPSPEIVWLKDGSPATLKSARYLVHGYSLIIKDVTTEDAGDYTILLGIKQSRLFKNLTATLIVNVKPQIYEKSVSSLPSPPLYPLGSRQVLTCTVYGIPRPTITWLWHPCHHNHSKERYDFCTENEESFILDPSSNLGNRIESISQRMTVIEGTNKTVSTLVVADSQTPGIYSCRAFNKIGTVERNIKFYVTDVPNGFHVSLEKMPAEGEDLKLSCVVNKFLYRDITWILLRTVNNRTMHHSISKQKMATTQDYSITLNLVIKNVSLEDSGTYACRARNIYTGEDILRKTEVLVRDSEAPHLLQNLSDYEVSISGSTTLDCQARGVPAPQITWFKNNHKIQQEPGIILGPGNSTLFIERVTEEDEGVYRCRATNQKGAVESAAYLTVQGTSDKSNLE",
  "assay": "ELISA",
  "data": [
    {"binder": "B1", "values": [
      {"measurement": "binding result", "value": "binds"}
    ]}
  ]
}
